# The RNAGym collection of RNA variant scans (doi:10.1073/pnas.2313332121)
# B1: TPR t1 (parent)
# chain: GACCAAUCUGCCCUCAGAGCUCGAGAACAUCUUCGGAUGCAGAGGAGGCAGGCUUCGGUGGCGCGAUAGCGCCAACGUCCUCAACCUCCAAUGCAUCCCACCACAUGAUGAUGCCUGAAGAGCCUUGGUUUUUUG
# Variants of: B1
# Assay: polymerase ribozyme fitness, log enrichment relative to wild type (log ratio); higher = more active; in vitro selection for triplet polymerase activity
# Method in brief: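 PCR was used to build mutant libraries for each subunit of a heterodimeric triplet polymerase ribozyme, which were then transcribed. A single in vitro selection round, in triplicate, used a frozen incubation at −7 °C and recovered extended constructs by gel excision, streptavidin beads and RT-PCR. Fitness is the logarithm of genotype enrichment relative to wild-type enrichment, averaged over replicates with inverse-variance weights. The logarithm is base 2, and after Illumina sequencing only genotypes with ≥10 input reads and ≥1 read per output were kept.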
row,Variant,polymerase ribozyme fitness (log ratio)
1,GACCAAUUUGCCCUCAGAGCUCGAGAACAUCUUCGGAUGCAGAGGAGGCAGGCUUCGGUGGCGCGAUAGCGCCAACGUCCUCAACCUCCAAUGCAUCCCACCACAUGAUGAUGCCUGAAGAGACUUGGUUUAUUG [C8U C123A U132A],1.43
2,GACCAAUUUGCCCUCAGAGCUCGAGAACAUCUUCGGAUGCAGAGGAGGCAGGCUUCGGUGGCGCGAUAGCGCCAACGUCCUCAAACUCCAUUGCAUCCCACCACAUGAUGAUGCCUGAAGAGCCUUGGUUUUUUG [C8U C85A A91U],-1.64
3,GACCAAUUUGCCCUCAGAGCUCGAGAACAUCUUCGGAUGCAGAGGAGGCAGGCUUCGGUGGCGCGAUAGGGCCAACGUCCUCAACCUCCAAUGCAUCCCACCACAUGAUGAUGCCUGAAGAGCCAUGGUGUUUUG [C8U C70G U125A U130G],-3.05
4,GACCAAUUUGCCCUCAGAGCUCGAGAACAUCUUCGGAUGCAGAGGAGGCAGGCUUCGGUGGCGCGAUAGCGUCAACGUCCUCAACCUCCAAUGCAUCCCACCACAUGAUGAUGCCUGAAGAGCCUUGGUUUUUUG [C8U C72U],0.252
5,GACCAAUUUCCCAUCAGAGCUCGAGAACAUCUUCGGAUGCAGAGGAGGGAGGAUUCGGUGGCGCGAUAGCGCCAACGUCCUCAACCUCCAAUGCAUCCCAACACAUGAUGAUGCCUGAAGAGCCUUGGUUUUAUG [C8U G10C C13A C49G C53A C101A U133A],-3
6,GACCAAUUUGCCCUCAGAGCUCGAGAACAUCUUCGGAUGCAGAGGAGGCAGGCUUCGGUGGCGCGAUAGCGCCAACGUCCUCAACAUCCAAUGCAUCCCACCACAUGAUGAUGCCUGAAGAGCCUUGGUUUUUUG [C8U C86A],-1.13
7,GACCAAUUUACCCUCAGAGCUCGAGAACAUCUUCGGAUGCAGAGGAGGCAGGCUUCGGUGGCGCGAUAGCGCCAACGUCCUCAACCUCCAAUGCCUCCCACCACAUGAUGAUGCCUGAAGAGCCUUGGUGUUUUG [C8U G10A A95C U130G],-1.3
8,GACCAAUUUGCCCUCAGAGCUCGAGAACAUCUUCGGAUGCAGAGGAGGCAGGCUUCGGUGGCGCGAUAGCGCCAACGUCCUCAACCUCCAAUGCAUCUCACCACAUGAUGAUGCCUGAAGAGCCUUGGUUUUUUG [C8U C98U],-1.28
9,GACCAAUUUGCCCUCAGAGCUCGAGAACAUCUUCGGAUGCAGAGGAGGCAGGCUUCGGUGGCGCGAUAGCGCCAACGUCCUCAACCUCCAAUGCAUCCCAUCACAUGAUGAUGCCUGAAGAGCCUUGGUUUUUUG [C8U C101U],0.244
10,GACCAAUUUGCCCUCAGAGCUCGAGAACAUCUUCGGAUGCAGAGGAGGCAGGCUUCGGUGGCGCGAUAGCGCCAACGUCCUCAACCUCCAAUGCAUCCCAACACAUGAUGAUGCCUGAAGAGCCUUGGUUUUUUG [C8U C101A],-0.038
11,GACCAAUUUGCCCUCAGAGCUCGAGAACAUCUUCGGAUGCAGAGGAGGCAGGCUUGGGUGGCGUGAUAGCGCCAACGUCAUCAACCUCCAAUGCAUCCCACCACAUGAUGAUGCCUGAAGAGCCUUGGUUUUUUG [C8U C56G C64U C80A],-3.18
12,GACCAAUUUGCCCUCAGAGCUCGAGAACAUCUUCGGAUGCAGAGGAGGCAGGCUUCGGUGGCGCGAUAGUGCCAACGUGCUCAACCUCCAAUGGAUCCCACCACAUGAUGAUGCCUGAAGAGCCUUGGUUUUUUG [C8U C70U C79G C94G],-3.8
13,GACCAAUUUGCCCUCAGAGCUCGAGAACAUCUUCGGAUGCAGAGGAGGCAGGCUUGGGUGGCGCGAUAGCGCCAACGUCCUCAACCUCCAAUGCAUCCCACCACAUGAUGAUGCCUGAAGAGCCUUGGUUUUUUG [C8U C56G],-0.121
14,GACCAAUUUGCCCUCAGAGCUCGAGAACAUCUUCGGAUGCAGAGGAGGCAGGCUUCGGUGGGGCGAUAGCGCCAACGUCCUCAACCUCCAAUGCAUCCCACCACAUGAUGAUGCCUGAAGAGCCUUGGUUUUUUG [C8U C62G],-0.903
15,GACCAAUUUGCCCUCAGAGCUCGAGAACAUCUUCGGAUGCAGAGGAGGCAGGCUUCGGUGGCGCGAUAGUGCCAACGUCCUCAACCUCCAAUGCAUCCCACCACAUGAUAAUGCCUGAAGAGCCUUGGUUUUUUG [C8U C70U G110A],-1.5
16,GACCAAUUUGCCCUCAGAGCUCGAGAACAUCUUCGGAUGCAGAGGAGGCAGGCUUCGGUGGCGCGAUAGCGUCAACGCCCACGACCUCCAAUGCAUCCCACCACAUGAUGAUGCCUGAAGAGCCUUGGUUUUUUG [C8U C72U U78C U81A A83G],-0.492
17,GACCAAUUUGCCCUCAGAGCUCGAGAACAUCUUCGGAUGCAGAGGAGGCAGGCUUCGGUGGCGCGAUAGCGCCAACGUCCUCAACCUCCAAUGCAUCCCAACACAUGAUGAAGCCUGAAGAGCCUUGGUUUUUUG [C8U C101A U112A],1.32
18,GACCAAUUUUCCCUCAGAGCUCGAGAUCAUCUUCGGAUGCAGAGGAGGCAGGCUUCGGCGGCGCGAUAGCGCCAACGUCCUCAACCUCCAAUGCAUCCCACCACAUGAUGAUGCCUGAAGAGCCUUGGUUUUUUG [C8U G10U A27U U59C],-3.06
19,GACCAAUUUGCCCUCAGAGCUCGAGAACAUCUUCGGAUGCAGAGGAGGCAGGCUUCGGUGGCGCGAUAGCGACAAAGUCCUCAACCUCCAAUGCAUCCCACCACAUGAUGAUGCCUGAAGAGCCUUGGUUUUUUG [C8U C72A C76A],-1.75
20,GACCAAUUUGCCCUCAGAGCUCGAGAACAUCUUCGGAUGCAGAGGAGGCAGGCUUCGGUGGCGCGAUAGCGACAACGUCCUCAACCUCCAAUGCAUCCCCCCACAUGAUGAUGCCUGAAGAGCCUUGGUUUCUUG [C8U C72A A100C U132C],-0.83
21,GACCAAUUUGCCCUCAGAGCUCGAGAACAUCUUCGGAUGCAGAGGAGGCAGGCUUCGGUGGCGCGAUAGCGCCAACGUCCUCAACCUGCAAUGCAUCCCACCACAUGAUGAUGCCUGAAGAGCCUUGGUUUUUUG [C8U C88G],-0.442

row,Variant,polymerase ribozyme fitness (log ratio)
1,GACCAAUUUGCCCUCAGAGCUCGAGAACAUCUUCGGAUGCAGAGGAGGCAGGCUUCGGUGGCGAGAUAGCGCCAACGUCCUCAACCUCCAAUGCAUCCCACCACAUGAUGAUGCCUGAAGAGCCUUGGUUUUUUG [C8U C64A],-6.53
2,GACCAAUUUGCCCUCAGAGCUCGAGAACAUCUUCGGAUGCAGAGGAGGCAGGCUUCGGUGGUGCGAUAGCGCCAACGUCCUCAACUUCCAAUGCAUCCCAACACAUGAUGAUGCCUGAAGAGCCUUGGUUUUUUG [C8U C62U C86U C101A],-1.69
3,GACCAAUUUGCCCUCAGAGCUCGAGAACAUCUUCGGAUGCAGAGGAGGCAGGCUUCGGUGGCGAGAUAGCGCCAACGUCCUCAACCUCCAAUGCAUCCCACCACAUGAUGAAGCCUGAAGAGCCUUGGUUUUUUG [C8U C64A U112A],-4.99
4,GACCAAUUUGCCCUCAGAACUCGAGAACAUCUUCGGAUGCAGAGGUGGCAGGCUUCGGUGGCGCGAUAGCGCAAACGUCCUCAACCUCCAAUGCAUCCCACCACAUGAUUAUGCCUGAAGAGCCUUGGUUUUUUG [C8U G19A A46U C73A G110U],-5.19
5,GACCAAUUUGCCCUCAGAGCUCGAGAACAUCUUCGGAUGCAGAGGAGGCAGGCUUCGGUGGCGUGAUAGCGACAACGUCCUCAACCUCCAAUGCAUCCCACCACAUGAAGAUGCCUGAAGAGCCUUGGUUUUUUG [C8U C64U C72A U109A],-4.83
6,GACCAAUUUGCCCUCAGAGCUCGAGAACAUCUUCGGAUGCAGAGGAGGCAGGCUUCGGUGGCGCGAUAGCGCCAACGUCCUCAACCUCCAAUGCAUCCCACCACAUGAUGAUGCCUGAAGAGCGUUGGUUUUUUG [C8U C124G],2.32
7,GACCAAUUUGCCCUCAGAGCUCGAGAACAUCUUCGGAUGCAGAGGAGGCAGGUUUCGGUGGCGCGAUAGCGCCAACGUCCUCAACCUCCAAGGCAUCCCACCACAUGAUGAUGCCUGAAGAGCCUUGGUUGUUUG [C8U C53U U92G U131G],-2.8
8,GACCAAUUUGCCCUCAGAGCUCGAGAACAUCUUCGGAUGCAGAGGAGGCAGGCUUCGGUGGCGCGAUAGCGCCAACGUCCUCAACAUCCAAUGCAUCCCACCACAUGAUGAUCCCUGAAGAGCCUUGGUGUUUUG [C8U C86A G113C U130G],-2.85
9,GACCAAUUUGCCCUCAGAGCUCGAGAACAUCUUCGGAUGCAGAGGAGGCAGGCUUCGGUGGCGCGAUAGCGCCAACGUCCUCAACCUCCAAUGUAUCCCACCACAUGAUGAUGCCUGAAGAGCCUUGGUUUUUUG [C8U C94U],0.9
10,GACCAAUUUGCCCUCAGAGCUCGAGAACAUCUUCGGAUGCAGAGGAGGCAGGCUUCGGUGGCGCGAUAGCGCCAACGUCCUCAACCUCCAAUGCAUUCCACCACAUGAUGAUGCCUGAAGAGCCUUGGUUUUUUG [C8U C97U],-0.0319
11,GACCAAUUUGCCCUCAGAGCUCGAGAACAUCUUCGGAUGCAGAGGAGGCAGGCUUCGGUGGCGCGAUAGAGCAAACGUCCUCAACCUCCAAUGCAUUCCACCACAUGAUGAUGCCUGAAGAGCCUUGGUUUUUUG [C8U C70A C73A C97U],-3.27
12,GACCAAUUUGCCCUCAGAGCUCGAGAACAUCUUCGGAUGCAGAGGAGGCAGGCUUCGGUGGCGCGAUAGGGCCAACGUCCUCAACCUCCAAUGCAUCCCACCACAUGAUGUUGCCUGAAGAGCCUUGGUUUUUUG [C8U C70G A111U],-6.19
13,GACCAAUUUGCCCUCAGAGCUCGAGAACAUCUUCGGAUGCAGAGGAGGCAGGCUUCGGUGGCGCGAUAGCGCAAACGUCCUCAUCCUCCAAUGCAUCCCACCACAUGAUGAUGCCUGAAGAGCCUUGAUUUUUUG [C8U C73A A84U G128A],-1.97
14,GACCAAUUUGCCCUCAGAGCUCGAGAACAUCUUCGGAUGCAGAGGAGGCAGGCUUCGGUGGAGCGAUAGCGCCAACGUCCUCAACCUCCAAUGCAUCCCACCACAUGAUGAUGGCUGAAGAGCCUAGGUUUUUUG [C8U C62A C114G U126A],-3.89
15,GACCAAUUUGCCCUCAGAGCUCGAGAACAUCUUCGGAUGCAGAGGAGGCAGGCUUCGGUGGCGCGAUAGCGCCAACGUACUCAACCUCCAAUGCAUCCCACCACAUGAUGAUGCCUGAAGAGCCUUGGUUUUUUG [C8U C79A],-0.138
16,GACCAAUUUGCCCUCAGAGCUCGAGAACAUCUUCGGAUGCAGAGGAGGCAGGCUUUGGUGGCGCGAUAGUGCAAACGUCCUCAACCUCCAAUGCAUCCCACCACAUGAUGAUGCCUGAAGAGCCUUGGUUUUUUG [C8U C56U C70U C73A],-2.03
17,GACCAAUUUACCCUCAGAGCUCGAGAACAUCUUCGGAUGCAGAGGAGGCAGGCUUCGGUGGCGCGAUAGCGCCAACGUCCUCAACCUCCAAUGCAUCCCACCACAUGAUGAUGCCUGAAGAGCAUUGGUUUUUUG [C8U G10A C124A],2.42
18,GACCAAUUUACCCUCAGAGCUCGAGAACAUCUUCGGAUGCAAAGAAGGCAGGUUUCGGUGGCGCGAUAGCGCCAACGUCCUCAAACUCCAAUGCAUCCCACCACAUGAUGAUGCCUGAAGAGCCUUGGUUUUUUG [C8U G10A G42A G45A C53U C85A],-4.02
19,GACCAAUUUGCCCUCAGAGCUCGAGAACAUCUUCGGAUGCAGAGGAGGCAGGCUUCGGUGGCGCGAUAGCGCCAAAGUCCUCAACCUCCAAUGCAUCCCACCACAUGAUGAUGCCUGGAGAGCCUUGGUUUUUUG [C8U C76A A118G],-0.712
20,GACCAAUUUGCCCUCAGAGCUCGAGAACAUCUUCGGAUGCAGAGGAGGCAGGCUUCGGUGGCGCGAUAGCGCUAACGUCCUCAACCUCCAAUGCAUCCCACCACAUGAUGAUGCCUGAAGAGCCUUGGUUUUUUG [C8U C73U],1.07
21,GACCAAUUUGCCCUCAGAGCUCGAGAACAUCUUCGGAUGCAGAGGAGGCAGGCUUCGGUGGGGCGAUAGCGCCAACGUCCUCAACCUCCAAUGCAUCCCACCACAGGAUGAAGCCUGAAGAGCCUUGGUUUUUUG [C8U C62G U106G U112A],-2.63
